Results reported in patent US5962634A, “IgE antagonists” (Thomas Jefferson University, priority 1997, dated 1999).
Bridges are numbered along the chain shown (N, C = ends). Where no end group is shown, it is not given here. [ ]: non-standard residue; d: D form.

Legend:
FcεR1α (Homo sapiens) = experiment: Surface plasmon resonance (BIAcore biosensor) inhibition of IgE-Fc binding to immobilized soluble FcεR1α; settings: peptide 2.5 mM; IgE-Fc 5 nM, association monitored for 6 minutes, 24° C.
Experimental: The kinetics of binding of IgE Fc to soluble FcεR1α were determined using a BIAcore biosensor (Pharmacia Biosensor AB, Uppsala, Sweden). The FcεR1α was immobilized via primary amine groups to a carboxymethylated dextran-coated CM5 sensor chip, at a concentration of 85 μg/ml in 10mM sodium acetate buffer pH 4.5, using N-hydroxy-succinimide and N-ethyl-N'-(3-[…])-carbodiimide.Free sites were blocked with 1M ethanolamine-hydrochloride pH 8.5.
The association of IgE-Fc at a concentration of 5nM was monitored for 6 minutes in the presence and absence of a derivative of the D amino acid peptide #1 at various concentrations (at 24° C.) The derivative of D amino acid peptide #1 is identical to D amino acid #1, which is described in Example 3, except it is biotinylated.

labelled myeloma IgE = experiment: competition: peptide titrated against 5 nM iodinated myeloma IgE binding to transfected CHO cells, gamma counting

Chain of FcεR1α (Homo sapiens) (P01854 104-428 isoform P01854-1 limits assumed): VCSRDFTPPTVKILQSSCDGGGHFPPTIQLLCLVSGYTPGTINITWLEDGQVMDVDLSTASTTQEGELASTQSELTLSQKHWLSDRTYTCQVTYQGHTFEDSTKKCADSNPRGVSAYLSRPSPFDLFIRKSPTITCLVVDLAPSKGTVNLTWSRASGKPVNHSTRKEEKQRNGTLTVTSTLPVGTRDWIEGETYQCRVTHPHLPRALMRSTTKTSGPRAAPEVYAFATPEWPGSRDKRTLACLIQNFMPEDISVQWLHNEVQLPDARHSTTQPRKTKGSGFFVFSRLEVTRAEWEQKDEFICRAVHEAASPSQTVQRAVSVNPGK

| Molecule | inhibition of IgE-Fc binding (FcεR1α (Homo sapiens)) | IC50 (labelled myeloma IgE) [µM] |
| --- | --- | --- |
| derivative of D amino acid peptide #1: identical to D amino acid peptide #1, which is described in Example 3, except it is biotinylated (CIYYKDGEALKY[dC]; disulfide 1-13; also: biotinylated (site not given here)) | virtually complete inhibition |  |
| CIYYKDGEALKY[dC] (disulfide 1-13) [D amino acid peptide #1] |  | 5.14 |
